Entries after “also recorded” stand apart in the source; their conditions may differ.
Legend:
[1] = tested on: S. aureus (strains Pig1 and LAC); assay: Effect of zinc on growth and viability of S. aureus; type: cell-based, Staphylococcus aureus; conditions: 100 μM Zn2SO4, RPMI 1640 with 10% FBS, 24 h
Description: To assess whether zinc, at the concentrations used in the inventors' study, adversely affect the growth and viability of S. aureus (strains Pig1 and LAC), bacteria (˜5×10^5 CFU) were incubated with or without 100 μM zinc (Zn2 SO4) in RPMI 1640 with 10% FBS. The assay was performed in triplicate in 96-well plates for 24 h at 37° C. at which time ten-fold serial dilutions were plated on THA for enumeration of CFU.

S. aureus [2] = assay: S. aureus survival assay in BMDM treated with IFN-γ; type: cell-based, mouse; conditions: C/EBPε−/− BMDM, IFN-γ 48 h before infection, 24 h
Description: Macrophages were infected with S. aureus at the specified MOI. […] After 30 min, macrophages were washed three times with pre-warmed media to remove extracellular bacteria. Gentamicin (Invitrogen, Carlsbad, Calif., USA) was then added to each well at a final concentration of 400 μg/mL for 1.5 h. At this time, the concentration of gentamicin in the media was reduced to 100 μg/mL for the remainder of the assay. At 24 h post infection, cells were washed three times with PBS, then 100 μl of 0.02% Triton X-100 in water was added to each well and pipetted vigorously 10× to promote macrophage lysis and release intracellular bacteria. Ten-fold serial dilutions of each cell lysate were immediately plated onto THA, and CFU were enumerated following overnight incubation at 37° C. Data are representative of at least two independent experiments performed in triplicate.
BMDM harvested from WT and C/EBPε^−/− mice were seeded at the required density of 5×10^4 cells per well (100 μl) in 96-well tissue culture plates. Macrophages were then activated with IFN-γ (200 U/mL) for 48 h prior to infection. Activated and control non-activated macrophages were infected with S. aureus at the specified MOI. The macrophage survival assay was then performed as described for U937 macrophages.

S. aureus [3] = assay: Murine skin (s.c.) S. aureus infection with IFN-γ treatment; type: in vivo, mouse; conditions: C/EBPε−/− mice, 5,000 U i.p. daily
Description: S. aureus was pelleted, washed twice and resuspended in PBS (Mediatech, Manassas, Va., USA) mixed 1:1 with sterile Cytodex beads (GE Healthcare, Pasadena, Calif., USA) at the specified inoculum, following an established protocol for generating localized S. aureus and S. pyogenes subcutaneous (s.c.) infection^41,42. One hundred microliters of two separate inocula, as specified, were administered by s.c. injection into the respective two flanks of each mouse. Injections were performed with careful visualization of the needle to assure that they were not intramuscular. Serial dilutions were prepared and plated to confirm the actual inocula used.
Baseline weights of mice were recorded prior to infection and daily thereafter until sacrifice. Lesions were measured with a caliper, daily throughout infection. Lesions were defined by darkened areas of dermonecrosis. The inventors' method to measure lesion size has been previously reported^43. Briefly, skin lesions were quantified by multiplying the length and width of the lesion. Irregularly-shaped lesions were broken down into smaller symmetrical pieces, and each piece was measured by the same method.
Following euthanization of mice on the specified day, infected skin lesion tissue was aseptically excised, and thoroughly homogenized and mixed in 1 mL of PBS as previously shown^43. Ten-fold serial dilutions of the homogenates were plated on THA for CFU determination. The spleen and both kidneys were aseptically removed from each animal and processed in the same way. When required, the appropriate homogenized suspensions (skin lesions) were centrifuged at 15,000 g for 10 min and supernatants stored at −80° C. for subsequent analysis by ELISA.
Mice were infected with S. aureus by s.c. injection as already described. One hundred microliters of two separate specified inocula were injected into the respective two flanks of WT and C/EBPε^−/− mice.
C/EBPε^−/− mice were treated with recombinant murine IFN-γ (Shenandoah Biotechnology, Warwick, Pa., USA) 48 h prior to infection. IFN-γ was administered i.p. (0.5 mL in PBS) at a dose of 5,000 U. Control WT and C/EBPε^−/− mice received equal amounts of PBS. The respective mice continued to receive IFN-γ or PBS every 24 h until they were euthanized.
Mouse weight and lesion size were recorded daily as already described. At day 4 p.i., mice were euthanized, and the CFU from skin lesions, spleen, and kidneys were determined.

| Molecule | effect on viability and growth of S. aureus [1] | effect on viability and growth of S. aureus ([1]; listed as Zinc) | S. aureus CFU recovered from / killing by macrophages (S. aureus [2]) | CFU in skin lesions, spleen and kidneys vs PBS (S. aureus [3]) | area of dermonecrosis (S. aureus [3]) | changes in body weight vs PBS-treated WT control (S. aureus [3]) | overall lesion size / area vs PBS (S. aureus [3]) |
| --- | --- | --- | --- | --- | --- | --- | --- |
| O=S(=O)([O-])[O-].[Zn+2] [zinc] | no effect; also recorded: does not have direct anti-staphylococcal activity | no effect |  |  |  |  |  |
| IFN-γ: recombinant murine IFN-γ (Shenandoah Biotechnology) (protein, UniProt P01580 23-155, looked up) Interferon gamma: HGTVIESLESLNNYFNSSGIDVEEKSLFLDIWRNWQKDGDMKILQSQIISFYLRLFEVLKDNQAISNNISVIESHLITTFFSNSKAKKDAFMSIAKFEVNNPQVQRQAFNELIRVVHQLLPESSLRKRKRSRC |  |  | reduced the number of S. aureus CFU; also recorded: improved killing of S. aureus | lower numbers of bacteria in the skin lesions; also recorded: significantly lower CFU | dramatically ameliorated | similar | no effect on the overall lesion area; also recorded: no effect on overall lesion size |

— patent publication US20130052162A1, “BOOSTING IMMUNE DEFENSE BY UPREGULATING CCAAT/ENHANCER BINDING PROTEIN EPSILON” (CEDARS-SINAI MEDICAL CENTER, priority 2010, published 2013)
